Assay results published in patent US20240287172A1 (SCIRHOM, published 2024).
Numbering of substitutions follows the chain as printed.

T1: hiR2-FL-Q527P-T7 (human, UniProt Q6PJF5 1-856)
T1 sequence: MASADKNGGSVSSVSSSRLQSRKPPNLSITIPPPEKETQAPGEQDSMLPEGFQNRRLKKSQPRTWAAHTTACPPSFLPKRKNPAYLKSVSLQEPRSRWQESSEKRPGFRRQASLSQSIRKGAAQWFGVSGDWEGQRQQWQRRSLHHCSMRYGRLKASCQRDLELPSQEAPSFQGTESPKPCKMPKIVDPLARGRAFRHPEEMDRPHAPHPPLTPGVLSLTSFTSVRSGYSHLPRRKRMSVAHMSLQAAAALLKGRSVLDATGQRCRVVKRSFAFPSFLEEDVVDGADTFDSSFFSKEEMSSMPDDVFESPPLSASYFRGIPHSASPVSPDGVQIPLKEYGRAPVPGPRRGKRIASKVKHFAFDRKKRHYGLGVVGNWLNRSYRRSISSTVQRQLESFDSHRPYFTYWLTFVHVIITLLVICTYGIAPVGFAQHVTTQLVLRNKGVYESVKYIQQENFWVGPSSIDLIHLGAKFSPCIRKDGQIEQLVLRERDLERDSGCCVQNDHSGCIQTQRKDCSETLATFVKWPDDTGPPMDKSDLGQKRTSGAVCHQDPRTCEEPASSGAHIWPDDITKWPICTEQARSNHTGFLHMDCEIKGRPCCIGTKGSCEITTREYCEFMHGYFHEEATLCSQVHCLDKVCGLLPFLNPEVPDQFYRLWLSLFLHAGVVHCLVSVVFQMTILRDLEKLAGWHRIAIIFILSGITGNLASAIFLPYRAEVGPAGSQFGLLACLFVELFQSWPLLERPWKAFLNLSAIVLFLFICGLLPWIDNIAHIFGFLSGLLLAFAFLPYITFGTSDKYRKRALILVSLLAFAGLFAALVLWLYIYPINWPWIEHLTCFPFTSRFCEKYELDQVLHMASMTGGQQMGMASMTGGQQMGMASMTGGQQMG

B1: antibody 48 (antibody, V domains shown)
VH: QVQLQQSGTELVRPGTSVKVSCKASGYAFTNYLIEWVKQRPGQGLEWIGVINPGSGFTKYNEKFKGKATLTADKSSSTVYMHLSSLTSEDSAVYFCARGLYRAMDYWGQGTSVTVSS
VL: DIQMTQSPASQSASLGESVTITCLASQTIATWLAWYQQKPGKSPQLLIYGATTLADGVPSRFSGGGSGTKFSFKISSLQAEDFVSYYCQQLYSTPYTFGGGTKLEIK
notes: mouse IgG, kappa light chain; also called clone #48; purified antibody 48
B2: antibody 50 (antibody, V domains shown)
VH: B1 VH with T9A, T16A, T30S, V79A, H82Q
VL: B1 VL with A30G, G50A, T52A, T53S, S85N, L91I
notes: mouse IgG, kappa light chain; also called clone #50; purified antibody 50
B3: antibody 5 (antibody, V domains shown)
VH: QVTLKESGPGILQPSQTLSLTCSFSGFSLSTFGMGVGWIRQPSGKGLEWLAHIWWDDEKYYNSALKSRLTISKATSKNQAFLKIANVDTADTATYYCARISNYGSNYWYFNVWGTGTTVTVSS
VL: QVVLTQSPALMSASPGEKVTMTCSAGSSVSCMYWYQQKPGSSPRVLIYDTSNLASGVPARFTGSGSGTSYSLTISRMEAEDAASYYCQQWNSYPLTFGAGTKLELK
notes: mouse IgG, kappa light chain; also called clone #5; purified antibody 5
B4: antibody 42 (antibody, V domains shown)
VH: B3 VH with F24L, M34R, S63P, A74D, A80V, K83R, S101Q, N111D
VL: LIVLTQSPAIMSASPGEKVTMTCGATSRISYMFWYQQKPGSSPRVLIYDTSNLASGVPVRFSGSGSGTSYSLTISRVEAEDVATYYCQQWNSYPLTFGAGTKLELK
notes: mouse IgG, kappa light chain; also called clone #42; purified antibody 42
B5: antibody 43 (antibody, V domains shown)
VH: B3 VH with T3A, P42S, H52N, E58D, S63P, A74D, T75A, S101G, N111D
VL: B4 VL with L1Q, K18R, G24S, T26N, F33Y, V45L, V77M, V82A, Y86N, N91S
notes: mouse IgG, kappa light chain; also called clone #43; purified antibody 43
B6: antibody 44 (antibody, V domains shown)
VH: B3 VH with G44E, E58D, S63P, A74D, A80I, A85T, D91E, A98S, S101G, N111D
VL: QIVLTQSPAVMSASPGEKVTMTCTASSSVYYMYWYQQTPGSSPRLLIYDTSNLASGVPVRFSGSGSGTSYSLTISRMEAEDAATYYCQQWNTYPLTFGAGTKLELK
notes: mouse IgG, kappa light chain; also called clone #44; purified antibody 44
B7: antibody 3 (antibody, V domains shown)
VH: QVTLKESGPGILQPSQTLSLTCSFSGFSLTTFAMGIGWVRQPSGKGLEWLAHIWWDGEKYNNPVLKSRLTISKDTSKNQVFLRIANVDTPDTATYYCARISSIYYIIDNWGQGTSVTVSS
VL: DIVLTQSPATLSVTPGHSVSLSCRASQSISNNLHWYQKKSHESPRLLIKYVSQSISGIPSRFSGSGSGTDFTLSINSVETEDFGMYFCQQSYNWPLTFGAGTKLELK
notes: mouse IgG, kappa light chain; also called clone #3; purified antibody 3

Target: T1, hiR2-FL-Q527P-T7
Assay: FACS, MEF-DKO cells, 3 µg/ml
From the text: In brief, immortalized MEF-DKO-hiR2-FL-G498A-T7, MEF-DKO-hiR2-FL-Q502R-T7, MEF-DKO-hiR2-FL-I509V-T7, MEF-DKO-hiR2-FL-Q512S-T7, MEF-DKO-hiR2-FL-R513E-T7, MEF-DKO-hiR2-FL-K514E-T7, MEF-DKO-hiR2-FL-D515E-T7, MEF-DKO-hiR2-FL-E518S-T7, MEF-DKO-hiR2-FL-T522V-T7, MEF-DKO-hiR2-FL-F523W-T7, MEF-DKO-hiR2-FL-Q527P-T7, MEF-DKO-hiR2-FL-D528I-T7, MEF-DKO-hiR2-FL-D529H-T7, MEF-DKO-hiR2-FL-T530P-T7, MEF-DKO-hiR2-FL-G531S-T7, MEF-DKO-hiR2-FL-P532A-T7, MEF-DKO-hiR2-FL-M534-T7, MEF-DKO-hiR2-FL-D535-T7, MEF-DKO-hiR2-FL-K536-T7, MEF-DKO-hiR2-FL-S537E-T7, MEF-DKO-hiR2-FL-D538L-T7, MEF-DKO-hiR2-FL-L539A-T7, MEF-DKO-hiR2-FL-Q541H-T7, MEF-DKO-hiR2-FL-T544Q-T7, MEF-DKO-hiR2-FL-S545F-T7, MEF-DKO-hiR2-FL-A547S-T7, MEF-DKO-hiR2-FL-T555V-T7, MEF-DKO-hiR2-FL-E557D-T7, MEF-DKO-hiR2-FL-A560S-T7 and MEF-DKO-hiR2-FL-S562E-T7 cells were harvested with 10 mM EDTA in PBS, washed and resuspended in FACS buffer (PBS, 3% FBS, 0.05% sodium azide), and seeded in Nunc U-bottom 96-well plates (Thermo Fisher Scientific, USA) at approximately 3×10⁵ cells per well. To pellet cells and remove supernatants, the plates were centrifuged at 1,500 rpm and 4° C. for 3 minutes. For primary staining, cells were resuspended in 100 μl per well of either FACS buffer alone (controls) or the purified antibodies 3, 5, 16, 22, 34, 42, 43, 44, 48, and 50 of the invention at 3 μg/ml in FACS buffer and incubated on ice for 1 hour. Afterwards, plates were centrifuged at 1,500 rpm and 4° C. for 3 minutes and washed twice with 200 μl per well of FACS buffer. For secondary staining, cells were spun down and resuspended in 100 μl per well of PE-conjugated goat anti-mouse IgG F(ab′)2 detection fragment (Dianova, Germany) diluted 1:100 in FACS buffer. Protected from light, the cell suspensions were incubated on ice for 1 hour. Plates were then centrifuged at 1,500 rpm and 4° C. for 3 minutes and washed three times with 200 μl per well of FACS buffer. Finally, cells were resuspended in 150 μl per well of FACS buffer and analyzed using a BD Accuri™ C6 Plus flow cytometer (Becton Dickinson, Germany).

Question: B1 was tested. Which “loss of binding vs wild type” value did it give?
Answer: ≥ 30%

Question: B2 was tested. Which “loss of binding vs wild type” value did it give?
Answer: ≥ 30%

Question: B3 was tested. Which “loss of binding vs wild type” value did it give?
Answer: ≥ 60%

Question: With B4 as the binder, how does the “loss of binding vs wild type” value read?
Answer: ≥ 30%

Question: Which “loss of binding vs wild type” value does the source give for B5 here?
Answer: ≥ 60%

Question: Which “loss of binding vs wild type” value does the source give for B6 here?
Answer: ≥ 60%

Question: B7 was tested. Which “loss of binding vs wild type” value did it give?
Answer: ≥ 30%
